Reference: patent US20230137032A1 (GlaxoSmithKline, published 2023)
Changes are numbered by the printed parent chain.

T1: recombinant human BCMA, commercial (US Biological, B0410) (human, UniProt Q02223 5-54, limits assumed)
T1 construct: also called commercial human BCMA; Human commercial BCMA
T1 chain (looked up): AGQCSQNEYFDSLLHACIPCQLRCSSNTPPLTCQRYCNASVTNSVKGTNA

B1: CA8 humanised J7M1 (antibody, human IgG1, kappa, V domains shown)
VH: QVQLVQSGAEVKKPGSSVKVSCKASGYTFTNYWMHWVRQAPGQGLEWMGATYRGHSDTYYNQKFKGRVTITADKSTSTAYMELSSLRSEDTAVYYCARGAIYDGYDVLDNWGQGTLVTVSS
VL: DIQMTQSPSSLSASVGDRVTITCSASQDISNYLNWYQQKPGKAPKLLIYYTSNLHSGVPSRFSGSGSGTDYTLTISSLQPEDFATYYCQQYRKLPWTFGQGTKLEIKR
notes: Humanised CA8, heavy chain J7 with light chain M1, human IgG1 kappa; also called CA8 J7M1
B2: CA8 humanised J8M1 (antibody, human IgG1, kappa, V domains shown)
VH: B1 VH with A97T
VL: B1 VL
notes: Humanised CA8, heavy chain J8 with light chain M1, human IgG1 kappa; also called CA8 J8M1
B3: CA8 humanised J7M2 (antibody, human IgG1, kappa, V domains shown)
VH: B1 VH
VL: B1 VL with M4L, K45E, L47V
notes: Humanised CA8, heavy chain J7 with light chain M2, human IgG1 kappa; also called CA8 J7M2
B4: CA8 humanised J7M0 (antibody, human IgG1, kappa, V domains shown)
VH: B1 VH
VL: B1 VL with Y71F
notes: Humanised CA8, heavy chain J7 with light chain M0, human IgG1 kappa; also called CA8 J7M0
B5: CA8 humanised J8M0 (antibody, human IgG1, kappa, V domains shown)
VH: B1 VH with A97T
VL: B1 VL with Y71F
notes: Humanised CA8, heavy chain J8 with light chain M0, human IgG1 kappa; also called CA8 J8M0
B6: CA8 humanised J9M2 (antibody, human IgG1, kappa, V domains shown)
VH: B1 VH with A24G, M48I, V68A, I70L, K74T, A97T
VL: B1 VL with M4L, K45E, L47V
notes: Humanised CA8, heavy chain J9 with light chain M2, human IgG1 kappa; also called CA8 J9M2
B7: S307118G03 humanised H3L1 (antibody, human IgG1, kappa, V domains shown)
VH: QVQLVQSGAEVKKPGSSVKVSCKASGYTFTDYYMKWVRQAPGQGLEWIGEIYPNNGGITYNQKFKGRATLTVDKSTSTAYMELSSLRSEDTAVYYCANGYEFVYWGQGTLVTVSS
VL: B1 VL with D28G, N53S, R92S
notes: Humanised, human IgG1 kappa
B8: CA8 humanised J4M1 (antibody, human IgG1, kappa, V domains shown)
VH: B1 VH with A24G, M48I, V68A, I70L, K74T, A97T, D103N
VL: B1 VL
notes: Humanised CA8, heavy chain J4 with light chain M1, human IgG1 kappa; also called CA8 J4M1
B9: S307118G03 humanised H2L1 (antibody, human IgG1, kappa, V domains shown)
VH: B7 VH with I48M, A68V, L70I, V72A
VL: B1 VL with D28G, N53S, R92S
notes: Humanised, human IgG1 kappa
B10: S307118G03 humanised H4L1 (antibody, human IgG1, kappa, V domains shown)
VH: B7 VH with I48M, A68V, L70I, V72A, N98D
VL: B1 VL with D28G, N53S, R92S
notes: Humanised, human IgG1 kappa
B11: CA8 humanised J1M2 (antibody, human IgG1, kappa, V domains shown)
VH: B1 VH with D103N
VL: B1 VL with M4L, K45E, L47V
notes: Humanised CA8, heavy chain J1 with light chain M2, human IgG1 kappa; also called CA8 J1M2
B12: S307118G03 humanised H2L0 (antibody, human IgG1, kappa, V domains shown)
VH: B7 VH with I48M, A68V, L70I, V72A
VL: B1 VL with D28G, N53S, Y71F, R92S
notes: Humanised, human IgG1 kappa
B13: CA8 humanised J3M2 (antibody, human IgG1, kappa, V domains shown)
VH: B1 VH with A24G, K74T, A97T, D103N
VL: B1 VL with M4L, K45E, L47V
notes: Humanised CA8, heavy chain J3 with light chain M2, human IgG1 kappa; also called CA8 J3M2
B14: CA8 humanised J1M0 (antibody, human IgG1, kappa, V domains shown)
VH: B1 VH with D103N
VL: B1 VL with Y71F
notes: Humanised CA8, heavy chain J1 with light chain M0, human IgG1 kappa; also called CA8 J1M0
B15: CA8 humanised J3M0 (antibody, human IgG1, kappa, V domains shown)
VH: B1 VH with A24G, K74T, A97T, D103N
VL: B1 VL with Y71F
notes: Humanised CA8, heavy chain J3 with light chain M0, human IgG1 kappa; also called CA8 J3M0
B16: CA8 humanised J0M1 (antibody, human IgG1, kappa, V domains shown)
VH: B1 VH with Y27G, T30S, D103N
VL: B1 VL
notes: Humanised CA8, heavy chain J0 with light chain M1, human IgG1 kappa; also called CA8 J0M1
B17: CA8 humanised J0M0 (antibody, human IgG1, kappa, V domains shown)
VH: B1 VH with Y27G, T30S, D103N
VL: B1 VL with Y71F
notes: Humanised CA8, heavy chain J0 with light chain M0, human IgG1 kappa; also called CA8 J0M0
B18: CA8 humanised J5M1 (antibody, human IgG1, kappa, V domains shown)
VH: B1 VH with A24G, K74T, A97T
VL: B1 VL
notes: Humanised CA8, heavy chain J5 with light chain M1, human IgG1 kappa; also called CA8 J5M1
B19: CA8 humanised J2M0 (antibody, human IgG1, kappa, V domains shown)
VH: B1 VH with A97T, D103N
VL: B1 VL with Y71F
notes: Humanised CA8, heavy chain J2 with light chain M0, human IgG1 kappa; also called CA8 J2M0
B20: CA8 humanised J3M1 (antibody, human IgG1, kappa, V domains shown)
VH: B1 VH with A24G, K74T, A97T, D103N
VL: B1 VL
notes: Humanised CA8, heavy chain J3 with light chain M1, human IgG1 kappa; also called CA8 J3M1
B21: S307118G03 humanised H3L0 (antibody, human IgG1, kappa, V domains shown)
VH: B7 VH
VL: B1 VL with D28G, N53S, Y71F, R92S
notes: Humanised, human IgG1 kappa
B22: CA8 humanised J4M0 (antibody, human IgG1, kappa, V domains shown)
VH: B1 VH with A24G, M48I, V68A, I70L, K74T, A97T, D103N
VL: B1 VL with Y71F
notes: Humanised CA8, heavy chain J4 with light chain M0, human IgG1 kappa; also called CA8 J4M0
B23: CA8 humanised J0M2 (antibody, human IgG1, kappa, V domains shown)
VH: B1 VH with Y27G, T30S, D103N
VL: B1 VL with M4L, K45E, L47V
notes: Humanised CA8, heavy chain J0 with light chain M2, human IgG1 kappa; also called CA8 J0M2
B24: CA8 humanised J5M0 (antibody, human IgG1, kappa, V domains shown)
VH: B1 VH with A24G, K74T, A97T
VL: B1 VL with Y71F
notes: Humanised CA8, heavy chain J5 with light chain M0, human IgG1 kappa; also called CA8 J5M0
B25: CA8 humanised J5M2 (antibody, human IgG1, kappa, V domains shown)
VH: B1 VH with A24G, K74T, A97T
VL: B1 VL with M4L, K45E, L47V
notes: Humanised CA8, heavy chain J5 with light chain M2, human IgG1 kappa; also called CA8 J5M2
B26: CA8 humanised J4M2 (antibody, human IgG1, kappa, V domains shown)
VH: B1 VH with A24G, M48I, V68A, I70L, K74T, A97T, D103N
VL: B1 VL with M4L, K45E, L47V
notes: Humanised CA8, heavy chain J4 with light chain M2, human IgG1 kappa; also called CA8 J4M2
B27: CA8 humanised J2M2 (antibody, human IgG1, kappa, V domains shown)
VH: B1 VH with A97T, D103N
VL: B1 VL with M4L, K45E, L47V
notes: Humanised CA8, heavy chain J2 with light chain M2, human IgG1 kappa; also called CA8 J2M2
B28: CA8 humanised J1M1 (antibody, human IgG1, kappa, V domains shown)
VH: B1 VH with D103N
VL: B1 VL
notes: Humanised CA8, heavy chain J1 with light chain M1, human IgG1 kappa; also called CA8 J1M1
B29: CA8 humanised J2M1 (antibody, human IgG1, kappa, V domains shown)
VH: B1 VH with A97T, D103N
VL: B1 VL
notes: Humanised CA8, heavy chain J2 with light chain M1, human IgG1 kappa; also called CA8 J2M1

Target: T2, recombinant cyno BCMA, in house material (cyno, UniProt A0A2K5UD97 4-52)
T2 construct: also called Cyno in house BCMA
T2 sequence (A0A2K5UD97 entry or part of it): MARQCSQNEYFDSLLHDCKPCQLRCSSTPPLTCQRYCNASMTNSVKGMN
Assay: Biacore T100, antibody captured on Protein A, 37C

| Binder | Kd |
| --- | --- |
| B1 | 1.06 nM |
| B2 | 1.28 nM |
| B3 | 1.29 nM |
| B4 | 1.14 nM |
| B5 | 1.08 nM |
| B6 | 0.515 nM |

Target: T1, recombinant human BCMA, commercial (US …)
Assay: Biacore T100, antibody captured on Protein A, 37C

| Binder | Kd |
| --- | --- |
| B1 | 0.056 nM |
| B2 | 0.05 nM |
| B3 | 0.057 nM |
| B4 | 0.064 nM |
| B5 | 0.052 nM |

Target: T2, recombinant cyno BCMA, in house material
Assay: ProteOn SPR run 1, antibody captured on Protein A, 25C

| Binder | binding result | Kd |
| --- | --- | --- |
| B7 | no binding | – |
| B8 | – | 0.203 nM |
| B9 | no binding | – |
| B10 | no binding | – |
| B11 | – | 0.303 nM |
| B12 | no binding | – |
| B13 | – | 0.159 nM |
| B14 | – | 0.849 nM |
| B15 | – | 0.526 nM |
| B16 | – | 0.503 nM |
| B17 | – | 0.648 nM |
| B18 | – | 0.112 nM |
| B19 | – | 0.538 nM |
| B20 | – | 0.196 nM |
| B21 | no binding | – |
| B22 | – | 0.866 nM |
| B23 | – | 0.563 nM |
| B24 | – | 0.025 nM |
| B25 | – | 0.109 nM |
| B26 | – | 0.179 nM |
| B27 | – | 0.106 nM |
| B28 | – | 0.442 nM |
| B29 | – | 0.218 nM |

Target: T3, recombinant human BCMA, in house material (human, UniProt Q02223 4-53, limits assumed)
T3 construct: also called Human in house BCMA; In house human BCMA
T3 sequence (Q02223 4-53 limits assumed): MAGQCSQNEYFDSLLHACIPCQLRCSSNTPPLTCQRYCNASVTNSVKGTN
Assay: as above

| Binder | Kd | binding result |
| --- | --- | --- |
| B7 | 4.86 nM | – |
| B8 | 0.278 nM | – |
| B9 | 6.37 nM | – |
| B10 | – | no binding (tested: up to 256 nM) |
| B11 | 1.14 nM | – |
| B12 | 6.36 nM | – |
| B13 | 0.362 nM | – |
| B14 | 2.82 nM | – |
| B15 | 1.37 nM | – |
| B16 | 0.373 nM | – |
| B17 | 0.435 nM | – |
| B18 | 0.145 nM | – |
| B19 | 1.94 nM | – |
| B20 | 0.438 nM | – |
| B21 | 5.31 nM | – |
| B22 | 0.906 nM | – |
| B23 | 0.31 nM | – |
| B24 | 0.087 nM | – |
| B25 | 0.12 nM | – |
| B26 | 0.281 nM | – |
| B27 | 0.482 nM | – |
| B28 | 1.51 nM | – |
| B29 | 0.842 nM | – |
